# Experimental data: patent US20230192897A1 (NUMAB THERAPEUTICS, published 2023)
# B1: PRO1059 (bispecific antibody, human IgG1, kappa, L234A L235A)
# light: DIQMTQSPSSLSASVGDRVTITCQASQSINDYLAWYQQKPGKAPKLLIYKASTLASGVPSRFSGSGSGTDFTLTISSLQPEDFATYYCQQGYIITDIDNVFGTGTKVTVLGTVAAPSVFIFPPSDEQLKSGTASVVCLLNNFYPREAKVQWKVDNALQSGNSQESVTEQDSKDSTYSLSSTLTLSKADYEKHKVYACEVTHQGLSSPVTKSFNRGECGGGGSGGGGSIQMTQSPSSLSASVGDRVTITCQASQSINNVLAWYQQKPGKAPKLLIYRASTLASGVPSRFSGSGSGTDFTLTISSLQPEDFATYYCQSSYGNYGDFGTGTKVTVLGGGGGSGGGGSGGGGSGGGGSQVQLQESGPGLVKPSETLSLTCKVSGFSFSNSYWICWIRQPPGKGLEWIGCTFVGSSDSTYYANWAKGRVTISVDSSKNQFSLKLSSVTAADTAVYYCARHPSDAVYGYANNLWGQGTLVTVSS
# heavy: QVQLQESGPGLVKPSETLSLTCKVSGFSFSSGYDMCWIRQPPGKGLEWIGCVVAGSVDITYYASWAKGRVTISVDSSKNQFSLKLSSVTAADTAVYYCARKDAYSDAFNLWGQGTLVTVSSASTKGPSVFPLAPSSKSTSGGTAALGCLVKDYFPEPVTVSWNSGALTSGVHTFPAVLQSSGLYSLSSVVTVPSSSLGTQTYICNVNHKPSNTKVDKRVEPKSCDKTHTCPPCPAPEAAGGPSVFLFPPKPKDTLMISRTPEVTCVVVDVSHEDPEVKFNWYVDGVEVHNAKTKPREEQYNSTYRVVSVLTVLHQDWLNGKEYKCKVSNKALGAPIEKTISKAKGQPREPQVYTLPPSREEMTKNQVSLTCLVKGFYPSDIAVEWESNGQPENNYKTTPPVLDSDGSFFLYSKLTVDKSRWQQGNVFSCSVMHEALHNHYTQKSLSLSPGK
# notes: silent hIgG1 anti-PDL1 with anti-CD137 scFv on the light chain; also called 33-03-G02 IgG1 LC with 38-02-A04 sc01 scFv; Morrison-L
# B2: PRO1060 (bispecific antibody, human IgG1, kappa, L234A L235A)
# light: DIQMTQSPSSLSASVGDRVTITCQASQSINDYLAWYQQKPGKAPKLLIYKASTLASGVPSRFSGSGSGTDFTLTISSLQPEDFATYYCQQGYIITDIDNVFGTGTKVTVLGTVAAPSVFIFPPSDEQLKSGTASVVCLLNNFYPREAKVQWKVDNALQSGNSQESVTEQDSKDSTYSLSSTLTLSKADYEKHKVYACEVTHQGLSSPVTKSFNRGEC
# heavy: QVQLQESGPGLVKPSETLSLTCKVSGFSFSSGYDMCWIRQPPGKGLEWIGCVVAGSVDITYYASWAKGRVTISVDSSKNQFSLKLSSVTAADTAVYYCARKDAYSDAFNLWGQGTLVTVSSASTKGPSVFPLAPSSKSTSGGTAALGCLVKDYFPEPVTVSWNSGALTSGVHTFPAVLQSSGLYSLSSVVTVPSSSLGTQTYICNVNHKPSNTKVDKRVEPKSCDKTHTCPPCPAPEAAGGPSVFLFPPKPKDTLMISRTPEVTCVVVDVSHEDPEVKFNWYVDGVEVHNAKTKPREEQYNSTYRVVSVLTVLHQDWLNGKEYKCKVSNKALGAPIEKTISKAKGQPREPQVYTLPPSREEMTKNQVSLTCLVKGFYPSDIAVEWESNGQPENNYKTTPPVLDSDGSFFLYSKLTVDKSRWQQGNVFSCSVMHEALHNHYTQKSLSLSPGKGGGGSGGGGSIQMTQSPSSLSASVGDRVTITCQASQSINNVLAWYQQKPGKAPKLLIYRASTLASGVPSRFSGSGSGTDFTLTISSLQPEDFATYYCQSSYGNYGDFGTGTKVTVLGGGGGSGGGGSGGGGSGGGGSQVQLQESGPGLVKPSETLSLTCKVSGFSFSNSYWICWIRQPPGKGLEWIGCTFVGSSDSTYYANWAKGRVTISVDSSKNQFSLKLSSVTAADTAVYYCARHPSDAVYGYANNLWGQGTLVTVSS
# notes: silent hIgG1 anti-PDL1 with anti-CD137 scFv on the heavy chain; also called 33-03-G02 IgG1 HC with 38-02-A04 sc01 scFv; Morrison-H
# B3: PRO1058 (other)
# chain: DIQMTQSPSSLSASVGDRVTITCQASQSINDYLAWYQQKPGKAPKLLIYKASTLASGVPSRFSGSGSGTDFTLTISSLQPEDFATYYCQQGYIITDIDNVFGTGTKVTVLGGGGGSQVQLQESGPGLVKPSETLSLTCKVSGFSFNNDYDMCWIRQPPGKGLEWIGCIDTGDGSTYYASWAKGRVTISVDSSKNQFSLKLSSVTAADTAVYYCAREAASSSGYGMGYFDLWGQGTLVTVSSGGGGSGGGGSGGGGSGGGGSIQMTQSPSSLSASVGDRVTITCQSSQSVYDNNWLAWYQQKPGKAPKLLIYRASNLASGVPSRFSGSGSGTDFTLTISSLQPEDFATYYCQGTYLSSNWYWAFGTGTKVTVLGGGGGSQVQLQESGPGLVKPSETLSLTCKVSGFSFSSGYDMCWIRQPPGKGLEWIGCVVAGSVDITYYASWAKGRVTISVDSSKNQFSLKLSSVTAADTAVYYCARKDAYSDAFNLWGQGTLVTVSSGGGGSGGGGSVVMTQSPSSLSASVGDRVTITCQASQIISSRSAWYQQKPGQPPKLLIYQASKLASGVPSRFSGSGSGTDFTLTISSLQPEDFATYYCQCTYIDSNFGAFGGGTKLTVLGGGGGSGGGGSGGGGSGGGGSEVQLVESGGGLVQPGGSLRLSCAASGFSFSSSYWICWVRQAPGKGLEWVGCVFTGDGTTYYASWAKGRFTISRDNSKNTVYLQMNSLRAEDTATYFCARPVSVYYYGMDLWGQGTLVTVSS
# notes: trispecific scDb-scFv; also called 38-27-C05 sc01 scDb-i/33-03-G02 sc01 scDb-o/23-13-A01-sc03, sk17sh4
# Legend:
# [1] = target: human PDL1 on cells (human, UniProt Q9NZQ7 19-290); experiment: cell-based or functional assay
# [2] = target: T1, CD137 on Jurkat NFkB reporter cells (human, UniProt Q07011 24-255); experiment: cell-based or functional assay
# [3] = target: human PDL1 extracellular domain (human, UniProt Q9NZQ7 19-238); experiment: SPR, IgG format captured
# Procedure: (§1) Affinity to PDL1 of the different species was determined by SPR measurements using a Biacore T200 device (GE Healthcare). An antibody specific for the Fc region of human IgGs was immobilized on a sensor chip (CM5 sensor chip, GE Healthcare) by amine-coupling. For all formats, with the exception of the Fc containing Morrison formats, PDL1-Fc chimeric protein from different species were captured by the immobilized antibody.
# (§2) The Fc containing formats were directly captured by the antibody specific for the Fc region of human IgGs. Two-fold serial dilutions of PDL1 extracellular domain or CD137 extracellular domain ranging from 90 to 0.35 nM were tested for binding to the IgG captured on the biosensor chip. After each injection cycle, surfaces were regenerated with one injection of a 3 M MgCl2 solution.
# [4] = target: T2, human CD137 extracellular domain (human, UniProt Q07011 24-186); experiment: SPR, IgG format captured
# T2 construct: also called CD137 (PeproTech, cat. 310-15)
# Procedure: as §1, §2
# [5] = target: T3, biotinylated human PDL1 (human, UniProt Q9NZQ7 19-238, limits assumed, biotinylated); experiment: competition ELISA B7.1/PDL1
# T3 construct: also called biotinylated PDL1
# Method in brief: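 IC₅₀ was derived by four-parameter logistic fitting of reference-subtracted A450/690 readings. The signal came from streptavidin-polyHRP40 (10 ng/ml) with a 6-minute TMB reaction detecting biotinylated PDL1 bound to the plate. Pre-mixed samples sat 1 h at RT before a 1.5 h plate incubation.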
# [6] = target: T3, biotinylated human PDL1; experiment: competition ELISA PD-1/PDL1
# [7] = target: T1, CD137 on Jurkat NFkB reporter cells; experiment: cell-based or functional assay; remark: listed apart in the source
# [8] = target: T1, CD137 on Jurkat NFkB reporter cells; experiment: cell-based or functional assay; remark: listed apart in the source
# [9] = target: T1, CD137 on Jurkat NFkB reporter cells; experiment: cell-based or functional assay; remark: listed apart in the source
# [10] = target: T4, Fc tagged human PDL1 (human, UniProt Q9NZQ7 19-239); experiment: SPR
# T4 construct: Bought (Sino Biological, cat. 10084-H02H); captured on the SPR chip; also called PDL1-Fc chimeric protein
# [11] = target: T5, Fc tagged human CD137 (human, UniProt Q07011 24-186); experiment: SPR
# T5 construct: also called CD137-Fc chimeric protein
# Method in brief: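 Kinetics were fitted with a one-to-one Langmuir model to give apparent ka, kd and KD. Binders at 0.12-90 nM (three-fold series) flowed 3 min, with 10 min dissociation and 3 M MgCl₂ regeneration, on a Biacore T200.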
"IC50 (ng/ml), NF-AT potency assay [1] [ng/mL]",rel. IC50 (avelumab/test) [1] [fold],"IC50 (ng/ml), NFkB reporter, CHO-PD-L1, 24 h [2] [ng/mL]","rel. IC50 (urelumab/test), NFkB reporter, CHO-PD-L1, 24 h [2] [fold]",koff [3] [s⁻¹],Kd [4] [nM],koff [4] [s⁻¹],IC50 [5] [µg/mL],rel. IC50 (IC50 avelumab/IC50 test) [5] [fold],IC50 [6] [µg/mL],rel. IC50 (IC50 avelumab/IC50 test) [6] [fold],further results,Binder
93.8,0.52,289,0.09,6.5e-05,2.3,0.00042,0.029,0.3,0.00454,0.37,kon [4]: 180000 M⁻¹ s⁻¹,B1
133,0.44,80.8,0.58,4.6e-05,1.3,0.00039,0.0174,0.49,0.00567,0.3,"EC50, NFkB reporter, CHO-PDL1, 6 h [7]: 0.0564 µg/mL; EC50, NFkB reporter, CHO-PDL1, 24 h [8]: 0.0808 µg/mL; EC50, NFkB reporter, HCC827 with IFNg, 24 h [9]: 0.0175 µg/mL; EC50, NFkB reporter, HCC827 without IFNg, 24 h [9]: 0.0136 µg/mL; IC50 (ng/ml), NFkB reporter, HCC827 + IFNg, 24 h [2]: 17.5 ng/mL; IC50 (ng/ml), NFkB reporter, HCC827 - IFNg, 24 h [2]: 13.6 ng/mL; rel. IC50 (urelumab/test), NFkB reporter, HCC827 + IFNg, 24 h [2]: 3.01 fold; rel. IC50 (urelumab/test), NFkB reporter, HCC827 - IFNg, 24 h [2]: 3.5 fold; kon [3]: 1.3e+06 M⁻¹ s⁻¹",B2
,,,,,,,,,,,"binding result [10]: binds; koff [11]: 0.0021 s⁻¹; EC50, NFkB reporter, CHO-PDL1, 6 h, +HSA [7]: 0.0709 µg/mL; EC50, NFkB reporter, CHO-PDL1, 24 h, +HSA [8]: 0.121 µg/mL; IC50 (ng/ml), NFkB reporter, CHO-PD-L1, 24 h, +HSA [2]: 121 ng/mL; max. activation (%), NFkB reporter, CHO-PD-L1, 24 h, +HSA [2]: 36.2%; rel. IC50 (urelumab/test), NFkB reporter, CHO-PD-L1, 24 h, +HSA [2]: 0.64 fold",B3
